1 molecule from patent US20210290727A1 (UNIVERSITY OF MARYLAND BALTIMORE, published 2021) can be followed below.

For one experiment, the target named is T1, FLAG-tagged TSC2 (UniProt P49815 1-1807, limits assumed).
T1 construct: also called pRK7-FLAG-TSC2; not shown: FLAG tag
Description: NanoSPD (nanoTRAP) filopodia co-accumulation in COS-7 cells.

The next experiment concerns the target T2, FLAG-tagged TSC1 (UniProt Q92574 1-1164).
T2 construct: also called pRK7-FLAG-TSC1; not shown: FLAG tag
T2 sequence (looked up): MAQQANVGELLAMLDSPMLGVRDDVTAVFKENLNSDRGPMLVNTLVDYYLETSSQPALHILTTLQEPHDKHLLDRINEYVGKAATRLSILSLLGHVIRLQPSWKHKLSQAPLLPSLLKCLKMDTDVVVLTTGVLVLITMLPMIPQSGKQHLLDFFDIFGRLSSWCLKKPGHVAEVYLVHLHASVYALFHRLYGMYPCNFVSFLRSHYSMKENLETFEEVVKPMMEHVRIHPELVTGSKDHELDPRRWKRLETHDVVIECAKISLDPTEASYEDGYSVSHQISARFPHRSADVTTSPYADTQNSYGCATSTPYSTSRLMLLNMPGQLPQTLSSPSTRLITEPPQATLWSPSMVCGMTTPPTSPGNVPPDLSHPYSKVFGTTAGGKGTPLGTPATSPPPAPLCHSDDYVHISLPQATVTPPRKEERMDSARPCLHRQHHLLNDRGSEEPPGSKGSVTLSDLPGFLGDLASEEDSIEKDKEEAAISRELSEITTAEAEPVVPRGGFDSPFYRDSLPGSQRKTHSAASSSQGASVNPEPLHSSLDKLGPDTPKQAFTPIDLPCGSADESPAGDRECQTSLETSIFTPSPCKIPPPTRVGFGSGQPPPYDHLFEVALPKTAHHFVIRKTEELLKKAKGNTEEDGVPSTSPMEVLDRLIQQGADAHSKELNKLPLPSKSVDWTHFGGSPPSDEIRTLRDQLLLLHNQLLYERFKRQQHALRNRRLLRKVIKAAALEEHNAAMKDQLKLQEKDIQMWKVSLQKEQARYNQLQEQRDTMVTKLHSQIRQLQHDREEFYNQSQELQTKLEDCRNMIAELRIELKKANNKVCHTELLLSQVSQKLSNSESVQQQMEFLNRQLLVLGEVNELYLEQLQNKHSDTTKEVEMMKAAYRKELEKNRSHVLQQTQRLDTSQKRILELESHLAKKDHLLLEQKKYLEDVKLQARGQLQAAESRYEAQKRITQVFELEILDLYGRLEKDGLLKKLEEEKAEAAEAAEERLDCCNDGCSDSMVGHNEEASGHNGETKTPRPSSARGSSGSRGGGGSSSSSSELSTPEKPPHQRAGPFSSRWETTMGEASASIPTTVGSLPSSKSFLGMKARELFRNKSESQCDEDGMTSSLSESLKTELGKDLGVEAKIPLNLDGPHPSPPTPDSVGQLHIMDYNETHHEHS
The description is as above.

T1 sequence (P49815 whole entry): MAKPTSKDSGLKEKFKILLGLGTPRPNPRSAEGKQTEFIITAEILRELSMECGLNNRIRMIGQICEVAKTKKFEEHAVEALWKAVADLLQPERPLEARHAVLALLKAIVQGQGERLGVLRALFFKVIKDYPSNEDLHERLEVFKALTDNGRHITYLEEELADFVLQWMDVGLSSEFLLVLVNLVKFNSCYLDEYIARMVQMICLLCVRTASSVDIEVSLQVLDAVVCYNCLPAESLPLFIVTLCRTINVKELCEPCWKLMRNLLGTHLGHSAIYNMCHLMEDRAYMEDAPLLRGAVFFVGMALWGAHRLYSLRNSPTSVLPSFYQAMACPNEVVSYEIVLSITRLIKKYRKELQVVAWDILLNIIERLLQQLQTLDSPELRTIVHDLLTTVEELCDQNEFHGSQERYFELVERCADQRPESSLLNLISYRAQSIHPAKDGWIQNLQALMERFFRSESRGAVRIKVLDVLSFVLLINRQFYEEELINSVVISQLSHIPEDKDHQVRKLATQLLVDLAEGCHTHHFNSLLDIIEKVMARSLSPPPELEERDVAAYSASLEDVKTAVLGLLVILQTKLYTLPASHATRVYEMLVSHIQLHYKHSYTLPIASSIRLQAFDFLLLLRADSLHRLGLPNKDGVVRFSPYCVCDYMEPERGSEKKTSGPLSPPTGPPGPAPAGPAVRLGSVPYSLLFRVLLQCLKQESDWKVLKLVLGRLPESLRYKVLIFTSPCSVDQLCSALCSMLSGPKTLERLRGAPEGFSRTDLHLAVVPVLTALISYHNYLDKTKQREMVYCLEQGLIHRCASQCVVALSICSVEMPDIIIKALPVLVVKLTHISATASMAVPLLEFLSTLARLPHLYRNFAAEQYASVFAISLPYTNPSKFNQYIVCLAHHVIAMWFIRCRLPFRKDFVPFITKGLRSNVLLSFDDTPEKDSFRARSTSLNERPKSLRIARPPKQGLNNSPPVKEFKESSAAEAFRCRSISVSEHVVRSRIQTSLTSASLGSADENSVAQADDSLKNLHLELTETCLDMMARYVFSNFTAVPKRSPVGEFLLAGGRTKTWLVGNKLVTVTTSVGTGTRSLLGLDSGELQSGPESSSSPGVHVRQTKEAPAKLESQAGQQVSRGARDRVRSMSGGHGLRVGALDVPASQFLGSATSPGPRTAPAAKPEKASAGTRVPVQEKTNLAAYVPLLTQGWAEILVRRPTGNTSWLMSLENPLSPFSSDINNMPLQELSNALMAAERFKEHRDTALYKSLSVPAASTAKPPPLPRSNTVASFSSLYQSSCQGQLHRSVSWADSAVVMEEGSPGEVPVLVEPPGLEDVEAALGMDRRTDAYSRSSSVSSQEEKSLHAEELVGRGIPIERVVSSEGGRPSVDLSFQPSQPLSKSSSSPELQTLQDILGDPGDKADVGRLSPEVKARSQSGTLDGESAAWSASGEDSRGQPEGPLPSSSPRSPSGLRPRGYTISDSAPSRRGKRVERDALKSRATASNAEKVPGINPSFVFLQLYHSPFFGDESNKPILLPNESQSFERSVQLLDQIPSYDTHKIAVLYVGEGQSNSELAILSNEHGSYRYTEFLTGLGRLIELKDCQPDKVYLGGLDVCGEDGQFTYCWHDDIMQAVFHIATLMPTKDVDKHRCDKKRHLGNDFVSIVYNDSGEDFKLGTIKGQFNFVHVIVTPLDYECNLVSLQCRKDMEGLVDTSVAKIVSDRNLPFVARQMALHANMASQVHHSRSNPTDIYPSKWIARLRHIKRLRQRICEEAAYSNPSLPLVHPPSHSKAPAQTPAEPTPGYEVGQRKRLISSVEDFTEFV
Description for FLAG-tagged TSC1: (§1) 60-70% confluent COS-7 cells or RPE-J cells were fixed with 4% PFA for 15 min at RT and permeabilized with 0.2% Triton X-100 in PBS for 15 min at room temperature, followed by blocking with 10% normal goat serum (NGS) in PBS for at least 30 min at RT. Primary antibodies were diluted in 3% NGS-PBS and incubated overnight at 4° C., followed by the incubations with the indicated goat secondary antibodies. […] A Zeiss 710 laser scanning confocal microscopy system was used for image acquisition, with step size of 0.5 μm.
(§2) 60-70% confluent Cos7 cells in 6-well plates for nanoTRAP were transfected with Lipofectamine 2000 (3:1 ratio) with 1 μg plasmid construct each. For nanoTRAP assay, cells were split 1:10 ratio in glass coverslips to allow for filopodia formation. 24 hrs later, cells were fixed and processed as above.
Description for FLAG-tagged TSC2: as §1, §2

B1: CIB2-eGFP (other)
chain: MGNKQTIFTEEQLDNYQDCTFFNKKDILKLHSRFYELAPNLVPMDYRKSPIVHVPMSLIIQMPELRENPFKERIVAAFSEDGEGNLTFNDFVDMFSVLCESAPRELKANYAFKIYDFNTDNFICKEDLELTLARLTKSELDEEEVVLVCDKVIEEADLDGDGKLGFADFEDMIAKAPDFLSTFHIRI
notes: Expressed in COS-7 cells as bait of the NanoSPD (nanoTRAP) assay; also called hCIB2-eGFP; GFP-hCIB2; not shown: eGFP tag
For B1, the binding result in the experiment with FLAG-tagged TSC2 and with FLAG-tagged TSC1 was “no binding” in each case.
